From PMC8962251 (Biomedicines, 2022)
Where no end group is shown, it is not given here.

Experiments:
[1] = target: T1, SARS-CoV-2 RBD (High Five insect cells, 6x His-tag) (SARS-CoV-2, UniProt P0DTC2); experiment: SPR; conditions: both partners purified
T1 construct: source: High Five insect cells, purified (HisExcel, SEC)

[2] = target: T2, SARS-CoV-2 S1S2-His (monomeric S1S2 spike protein) (SARS-CoV-2, UniProt P0DTC2 14-1213); experiment: SPR; conditions: both partners purified
T2 construct: source: High Five insect cells, purified (HisExcel, SEC)

B1: CVRBDL-3 (peptide)
peptide: HDFWWEYDKKNDTWTRRRR-NH2
notes: also called CVRDBL-3; CVRBD-3; source: synthetic peptide; bought: CASLO
[1]
  stoichiometry N: 1
[2]
  stoichiometry N: 1
